Legend:
Assay in all cases: cell-based or functional assay
[1] = target: Env of HIV-1 strain Ce704809221_1B3 (HIV-1)
[2] = target: Env of HIV-1 strain 3016.v5.c45 (HIV-1)
[3] = target: Env of HIV-1 strain R2184.c04 (HIV-1)
[4] = target: Env of HIV-1 strain Ce1086_B2 (HIV-1)
[5] = target: Env of HIV-1 strain 6811.v7.c18 (HIV-1)
[6] = target: Env of HIV-1 strain 1056_10_TA11_1826 (HIV-1)
[7] = target: Env of HIV-1 strain 6244_13_B5_4576 (HIV-1)
[8] = target: Env of HIV-1 strain Ce0682_E4 (HIV-1)
[9] = target: HIV-1 Env of strain HIV-0013095-2.11 (HIV-1)
[10] = target: HIV-1 Env of strain BJOX010000.06.2 (HIV-1)
[11] = target: HIV-1 Env of strain 1056_10_TA11_1826 (HIV-1)
[12] = target: HIV-1 Env of strain 263-8 (HIV-1)
[13] = target: Env of HIV-1 strain SC05_8C11_2344 (HIV-1)
[14] = target: Env of HIV-1 strain 1054_07_TC4_1499 (HIV-1)
[15] = target: Env of HIV-1 strain 3365.v2.c2 (HIV-1)
[16] = target: HIV-1 Env of strain BJOX009000.02.4 (HIV-1)
[17] = target: Env of HIV-1 strain 191084 B7-19 (HIV-1)
[18] = target: HIV-1 Env of strain C4118.c09 (HIV-1)
[19] = target: Env of HIV-1 strain 235-47 (HIV-1)
[20] = target: HIV-1 Env of strain T278-50 (HIV-1)
[21] = target: Env of HIV-1 strain 231965.c01 (HIV-1)
[22] = target: Env of HIV-1 strain ZM233M.PB6 (HIV-1)
[23] = target: HIV-1 Env of strain 6535.3 (HIV-1)
[24] = target: HIV-1 Env of strain 6480.v4.c25 (HIV-1)
[25] = target: Env of HIV-1 strain 3103.v3.c10 (HIV-1)
[26] = target: HIV-1 Env of strain 6244_13_B5_4576 (HIV-1)
[27] = target: HIV-1 Env of strain X2088_c9 (HIV-1)
[28] = target: HIV-1 Env of strain X2131_C1_B5 (HIV-1)
[29] = target: HIV-1 Env of strain T251-18 (HIV-1)
[30] = target: HIV-1 Env of strain QH0692.42 (HIV-1)
[31] = target: Env of HIV-1 strain 6240_08_TA5_4622 (HIV-1)
[32] = target: HIV-1 Env of strain 928-28 (HIV-1)
[33] = target: HIV-1 Env of strain Q259.d2.17 (HIV-1)
[34] = target: HIV-1 Env of strain 3365.v2.c2 (HIV-1)
[35] = target: HIV-1 Env of strain 89-F1_2_25 (HIV-1)
[36] = target: HIV-1 Env of strain 0815.v3.c3 (HIV-1)
[37] = target: HIV-1 Env of strain ZM135M.PL10a (HIV-1)
[38] = target: Env of HIV-1 strain C2101.c01 (HIV-1)
[39] = target: Env of HIV-1 strain ZM109F.PB4 (HIV-1)
[40] = target: HIV-1 Env of strain BJOX028000.10.3 (HIV-1)
[41] = target: HIV-1 Env of strain 620345.c01 (HIV-1)
[42] = target: Env of HIV-1 strain CNE5 (HIV-1)
[43] = target: HIV-1 Env of strain ZM214M.PL15 (HIV-1)
[44] = target: Env of HIV-1 strain WITO4160.33 (HIV-1)
[45] = target: HIV-1 Env of strain 3103.v3.c10 (HIV-1)
[46] = target: HIV-1 Env of strain 6041.v3.c23 (HIV-1)
[47] = target: HIV-1 Env of strain Q842.d12 (HIV-1)
[48] = target: HIV-1 Env of strain RHPA4259.7 (HIV-1)
[49] = target: Env of HIV-1 strain HIV-001428-2.42 (HIV-1)
[50] = target: Env of HIV-1 strain BJOX009000.02.4 (HIV-1)

NIH45-46 (antibody), sequence (VH): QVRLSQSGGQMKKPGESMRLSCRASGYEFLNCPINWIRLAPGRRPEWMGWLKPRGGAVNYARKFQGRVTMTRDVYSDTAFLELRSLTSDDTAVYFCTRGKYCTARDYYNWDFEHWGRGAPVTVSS
NIH45-46 (antibody), sequence (V domain): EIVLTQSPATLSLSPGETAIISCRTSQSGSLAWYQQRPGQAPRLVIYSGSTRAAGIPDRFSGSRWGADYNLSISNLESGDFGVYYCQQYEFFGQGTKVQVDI

## NIH45-46 (antibody)
[1]
  IC80: 0.88 µg/mL
[2]
  IC80: > 50 µg/mL
[3]
  IC80: 0.127 µg/mL
[4]
  IC80: 0.28 µg/mL
[5]
  IC80: 0.113 µg/mL
[6]
  IC80: 0.447 µg/mL
[7]
  IC80: 0.26 µg/mL
[8]
  IC80: 0.155 µg/mL
[9]
  IC50, pseudovirus neutralization: 0.01 µg/mL
[10]
  IC50, pseudovirus neutralization: 0.87 µg/mL
[11]
  IC50, pseudovirus neutralization: 0.094 µg/mL
[12]
  IC50, pseudovirus neutralization: 0.05 µg/mL
[13]
  IC80: 0.38 µg/mL
[14]
  IC80: 0.404 µg/mL
[15]
  IC80: 0.11 µg/mL
[16]
  IC50, pseudovirus neutralization: 0.26 µg/mL
[17]
  IC80: 0.07 µg/mL
[18]
  IC50, pseudovirus neutralization: 0.14 µg/mL
[19]
  IC80: 1.49 µg/mL
[20]
  IC50, pseudovirus neutralization: > 50 µg/mL
[21]
  IC80: 0.126 µg/mL
[22]
  IC80: 14.2 µg/mL
[23]
  IC50, pseudovirus neutralization: 0.14 µg/mL
[24]
  IC50, pseudovirus neutralization: 0.032 µg/mL
[25]
  IC80: 6.15 µg/mL
[26]
  IC50, pseudovirus neutralization: 0.07 µg/mL
[27]
  IC50, pseudovirus neutralization: > 50 µg/mL
[28]
  IC50, pseudovirus neutralization: 0.23 µg/mL
[29]
  IC50, pseudovirus neutralization: 1.35 µg/mL
[30]
  IC50, pseudovirus neutralization: 0.72 µg/mL
[31]
  IC80: 1.55 µg/mL
[32]
  IC50, pseudovirus neutralization: 0.23 µg/mL
[33]
  IC50, pseudovirus neutralization: 0.043 µg/mL
[34]
  IC50, pseudovirus neutralization: 0.029 µg/mL
[35]
  IC50, pseudovirus neutralization: > 50 µg/mL
[36]
  IC50, pseudovirus neutralization: 0.014 µg/mL
[37]
  IC50, pseudovirus neutralization: 0.59 µg/mL
[38]
  IC80: 31.4 µg/mL
[39]
  IC80: 0.437 µg/mL
[40]
  IC50, pseudovirus neutralization: 0.07 µg/mL
[41]
  IC50, pseudovirus neutralization: > 50 µg/mL
[42]
  IC80: 0.41 µg/mL
[43]
  IC50, pseudovirus neutralization: 0.17 µg/mL
[44]
  IC80: 0.26 µg/mL
[45]
  IC50, pseudovirus neutralization: 1.77 µg/mL
[46]
  IC50, pseudovirus neutralization: 0.006 µg/mL
[47]
  IC50, pseudovirus neutralization: 0.031 µg/mL
[48]
  IC50, pseudovirus neutralization: 0.017 µg/mL
[49]
  IC80: 0.01 µg/mL
[50]
  IC80: 1.16 µg/mL

From patent publication US20130209454A1
